Assay results taken from paper PMC13462943.

Target: SAM
Test: native mass spectrometry
Conditions: protein and substrate concentrations 5 µM

GLP methyltransferase domain (aa 1001-1266), wild type (from UniProt Q9H9B1-1) C1073Y
other: relative abundance, 1x SAM bound (parent: 11): 18
other: relative abundance, free protein (parent: 88): 80
